Measured values taken from PMC2747101.

Biological target: hCD40ADD (human CD40 with its TRAF binding site PVQETLH changed to PVQATDD) (human) (UniProt P25942)
Test: co-IP

B1: TNF receptor-associated factor 2 (natural protein)
chain: MAAASVTSPGSLELLQPGFSKTLLGTRLEAKYLCSACKNILRRPFQAQCGHRYCSFCLTSILSSGPQNCAACVYEGLYEEGISILESSSAFPDNAARREVESLPAVCPNDGCTWKGTLKEYESCHEGLCPFLLTECPACKGLVRLSEKEHHTEQECPKRSLSCQHCRAPCSHVDLEVHYEVCPKFPLTCDGCGKKKIPRETFQDHVRACSKCRVLCRFHTVGCSEMVETENLQDHELQRLREHLALLLSSFLEAQASPGTLNQVGPELLQRCQILEQKIATFENIVCVLNREVERVAVTAEACSRQHRLDQDKIEALSNKVQQLERSIGLKDLAMADLEQKVSELEVSTYDGVFIWKISDFTRKRQEAVAGRTPAIFSPAFYTSRYGYKMCLRVYLNGDGTGRGTHLSLFFVVMKGPNDALLQWPFNQKVTLMLLDHNNREHVIDAFRPDVTSSSFQRPVSDMNIASGCPLFCPVSKMEAKNSYVRDDAIFIKAIVDLTGL
- fold reduction of co-immunoprecipitated TRAF2 against hCD40: 2 fold
